Values quoted from earlier work in US20250197888A1, “NOVEL RECOMBINANT VECTOR AND USE THEREOF” (CELL & BRAIN CO., LTD., priority 2022, published 2025).

Conditions: A168H mutant; Balzarini et al., 2006

## mutant HSV-TK: HSV thymidine kinase in which alanine at position 168 is substituted with histidine
  kinase activity relative to wild-type HSV-TK: about 4 times
